Results on three molecules are retold here after PMC5415106, “Dpb11 may function with RPA and DNA to initiate DNA replication” (PLoS ONE, 2017).

The chains are these.
B2: Cdc45 (purified, radiolabelled) (natural protein, budding yeast, UniProt Q08032 1-650, looked up)
chain: MYYGISQFSEAYNKILRNSSSHSSCQLVIFVSCLNIDALCATKMLSLLFKKQLVQSQIVPIFGYSELRRHYSQLDDNINSLLLVGFGGVIDLEAFLEIDPQEYVIDTDEKSGEQSFRRDIYVLDAHRPWNLDNIFGSQIIQCFDDGTVDDTLGEQKEAYYKLLELDEESGDDELSGDENDNNGGDDEATDADEVTDEDEEDEDETISNKRGNSSIGPNDLSKRKQRKKQIHEYEGVLEEYYSQGTTVVNSISAQIYSLLSAIGETNLSNLWLNILGTTSLDIAYAQVYNRLYPLLQDEVKRLTPSSRNSVKTPDTLTLNIQPDYYLFLLRHSSLYDSFYYSNYVNAKLSLWNENGKKRLHKMFARMGIPLSTAQETWLYMDHSIKRELGIIFDKNLDRYGLQDIIRDGFVRTLGYRGSISASEFVEALTALLEVGNSTDKDSVKINNDNNDDTDGEEEEDNSAQKLTNLRKRWVSNFWLSWDALDDRKVELLNRGIQLAQDLQRAIFNTGVAILEKKLIKHLRIYRLCVLQDGPDLDLYRNPLTLLRLGNWLIECCAESEDKQLLPMVLASIDENTDTYLVAGLTPRYPRGLDTIHTKKPILNNFSMAFQQITAETDAKVRIDNFESSIIEIRREDLSPFLEKLTLSGLL
notes: Cdc45, budding yeast; The legend says only 'Similar to (A), except Cdc45 was used in place of Sld2T84D'; not shown: PKA tag (inferred from the radiolabelling method), N-terminal, kept
B3: GST-Dpb11-m1,2,3,5,ΔC (natural protein, budding yeast, UniProt P47027 1-615, looked up)
chain: MKPFQGITFCPTAINNEILAKKISKKIIKLGGIFSKDLTRQVNVLVVGSTTNTNKFKFAVKHRFDIIFIDIQAIDDIYQLWLSGENILPDSNTATMTGSTYEMLKILYRRFSFKYLHNFNIFIGRITDTNITSIDSLVRSIKKLGCSSYNYQNFVIKDTSSHNDDDDQGQNGQISIFVTDTLLGARVNAAIEQNIPIVHFKWILDCQKRSALLPYDPYYLLPNIKDLPYDSIGSNSCDCWDKINTTFPTNIDAQSSLQRQQSSSTLTPSLPKTSSLLNKFKPKGEKIWDKAMSLQQHSKTNFSVLGQSPLSINNKQEDLSDNSTLIFKNCAFIIHHIFPGNHRSILTKIVVQNGGKIETSYLSGIYDHSYYIIPSNKALDSFNDLPEIIDDNDGIVTEFFIERCLYYQKLLHPIDLWSKPFLSTIEFQVSSSSKLLHHEFSSSPFLNVTITGFSGVELLHLTEVLNLLEPMGINYVEYLNKSTDILLINLAALPSIPKTHPLWSNEFSDLFTQFCINNNNDDPGDNNRKDFQNNSILENSMKRKIEYIEKFHSIPVVTPAFIFKLLSAASGENNEIFLNNIKWCIICPRGHKDDFKCKIKKPYYTSISSEKKYQN
notes: Dpb11, budding yeast; ΔC = deletion of amino acids 616 to 764 (the C-terminus), so residues up to 615 remain; m1,2,3,5 = K463E, K469E, R538E, K549E in the BRCT4 motif; also called Dpb11-K463E, K469E, R538E,K549E, Δaa616-764; Dpb11-m1,2,3,4,ΔC (as printed once)

Common to all, as to test: pull-down; 10 pmol GST-tagged Dpb11 with 32P-labelled protein, no DNA; GST-binding buffer (40 mM Tris-HCl pH 7.5, 100 mM NaCl, 0.1 mM EDTA, 10% glycerol, 0.1% Triton X-100, 1 mM DTT, 0.1 mg/ml BSA), 25°C 1 h; glutathione Sepharose, two washes; SDS-PAGE and phosphorimaging
Holding throughout (details): both partners purified

Assay [1] concerns the target T1, GST-Dpb11-wild-type (budding yeast, UniProt P47027 1-764).
T1 construct: Dpb11, budding yeast, full-length; also called Full-length Dpb11; wild-type Dpb11
T1 sequence (looked up): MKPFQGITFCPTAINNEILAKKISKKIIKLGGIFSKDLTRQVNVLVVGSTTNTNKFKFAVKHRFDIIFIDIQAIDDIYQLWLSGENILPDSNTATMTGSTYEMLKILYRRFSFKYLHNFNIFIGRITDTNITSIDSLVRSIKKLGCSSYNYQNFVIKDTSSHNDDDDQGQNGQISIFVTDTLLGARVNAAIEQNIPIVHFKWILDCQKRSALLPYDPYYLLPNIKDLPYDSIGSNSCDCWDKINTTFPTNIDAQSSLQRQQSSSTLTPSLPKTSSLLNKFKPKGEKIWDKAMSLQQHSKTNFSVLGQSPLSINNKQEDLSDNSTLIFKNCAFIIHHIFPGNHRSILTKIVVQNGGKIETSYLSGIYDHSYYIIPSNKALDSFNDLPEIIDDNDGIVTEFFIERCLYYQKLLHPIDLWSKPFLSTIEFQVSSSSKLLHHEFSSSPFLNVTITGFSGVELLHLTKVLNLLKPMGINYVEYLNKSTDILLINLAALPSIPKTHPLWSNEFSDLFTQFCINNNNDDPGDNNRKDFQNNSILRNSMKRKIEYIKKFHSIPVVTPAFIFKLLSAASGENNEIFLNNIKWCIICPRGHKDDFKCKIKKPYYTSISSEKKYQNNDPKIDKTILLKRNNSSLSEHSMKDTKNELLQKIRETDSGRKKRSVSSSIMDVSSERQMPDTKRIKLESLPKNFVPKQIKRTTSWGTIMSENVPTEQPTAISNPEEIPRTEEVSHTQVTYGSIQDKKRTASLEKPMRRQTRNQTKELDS

Assay [2] deals with B3.
Assay [3] deals with T2, Mcm2-7 complex with a PKA tag at the N-terminus of Mcm2 (budding yeast, UniProt P29469 1-868; P24279 1-971; P30665 1-933; P29496 1-775; P53091 1-1017; P38132 …, 32P-phosphate on the PKA tag).
T2 construct: Mcm2, budding yeast; Mcm3, budding yeast; Mcm4, budding yeast; Mcm5, budding yeast; Mcm6, budding yeast; Mcm7, budding yeast (named only within 'Mcm2-7'); not shown: PKA tag, N-terminal, kept; copies: + + + + +

The target in assay [4] is B2.

B1: PKA-Sld2T84D (natural protein, budding yeast, UniProt P34252 1-453, looked up)
chain: MYSFELDKLKIELKTWEHDFIDKNKREPTRDDIKSLRTVRQMYKQYSTLKKKQSLQRQKVDTQESVELPAHKKDHDEVVEIGPDPQVYGKAISIFDMNLSPIKPIYMTFTNNIDVNNDNSKTISNESSPRKTILLKSSPADRTLVAEPISSVKRQLNFQMLNASSTRTPTSSPCKNRNGKLVEIKKCSPTINPPLESGKPSGYYGPNSPLKLDEENIHLNISLNSSTKRRLQIAYPSLQKTPSKDQADISTSFSPSPLIRRPLTKSLIELAREHTEIVKEFGVLQEEDIEEEEEGEEGENGYDEKNHEDDFGLEDELIRPKVVKDIFQEDDDNDDSQAREDTFIRKRPKRRKVIRRLRDNDPETETAGFERDVHKELVKLKRRKVAEFLGSTSQISDTEFEHDPEASSGVVSSEQKPTAKRKGRKKYNLVSNNFRRLKLPKKNRFSNGRWGRR
modifications: 32P-phosphate on the artificial PKA site
notes: Sld2, budding yeast, with T84D; not shown: PKA site, N-terminal, kept
As to B1, the binding result in assay [1] and in assay [2] was “binds” each time.

With B2, the binding result in assay [1] is “binds”.

For the molecule B3, the binding result in assay [3] and in assay [4] was “binds” in each case.
